This is an account of results in patent publication US20020182673A1.

Experiment [1] has as its target recombinant IL-17E (baculovirus, His-tag removed by thrombin) (human). As to the kind of experiment: SPR (BIAcore 1000), IL-17E immobilised, IL-17RH1 ECD in solution, 1:1 model. (In general: SPR reads the build-up and loss of mass on a sensor chip optically.)
Experiment [2] addresses IL-17RH1 (PRO5801) ECD (residues 1-275), baculovirus, His-tag removed (human). As to the kind of experiment: SPR (BIAcore 1000), IL-17RH1 ECD immobilised, IL-17E in solution, 1:1 model.

Turning to “IL-17RH1 (PRO5801) ECD (residues 1-275), baculovirus, His-tag removed (receptor)”, in experiment [1], the Kd was 1.1 nM, the koff was 0.0007 s⁻¹ and the on-rate (kon) came to 670000 M⁻¹ s⁻¹.
In experiment [2], “recombinant IL-17E (baculovirus, His-tag removed by thrombin) (ligand)” returned a Kd of 1.4 nM, a koff of 0.00062 s⁻¹ and a kon of 430000 M⁻¹ s⁻¹.

Usually Kd stands for a measure of binding affinity in units of concentration. A word on the koff: it is the rate constant with which the complex falls apart. As usually defined, the kon is the rate constant with which the complex forms.
